The record followed here is the nanobody polyreactivity screen of Harvey et al. (2022).

A short description of the series: yeast display, Sf9 membrane polyspecificity reagent, FACS + sequencing; frameworks hold sequencing errors. In a few lines: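 Galactose-induced (36–48 hours) yeast carrying a synthetic nanobody display library were exposed to 10% biotinylated, detergent-solubilized Sf9 membrane reagent at 4 °C for 1 hour. FACS followed streptavidin microbead enrichment, using low and high (top ~1%) gates for expression (anti-HA) and reagent binding (streptavidin). Colony PCR, MiSeq 2 × 250 sequencing and CDR-length filtering followed. Labels for polyreactivity reflect the gate of origin.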
In the case of “QVQLVESGVGLVQAGGSLRLSCASSGLTLNQYAIGWYRQAPGKERELVAAITRGGGSTYYADSVKGRFTISRDNAKYTVYLQMNSLKPEDTAVYYCATDNWWPTYHYQGGYYWGQGTQVTVSS”, the “polyreactivity (PSR sort gate)” value is recorded as “low polyreactivity”.

For the sequence “QVQLVESGVGLVQAGGSLRLSCDATGSILGINVMGWYRQAPGKEREVVAAISRRGGSTYYADSVKGRFTISRDNSKNTVYLQMNSLKPEDTAVYYCAAGTSYYYGSYRFYYWGQGTQVTVSS”, the “polyreactivity (PSR sort gate)” value was “high polyreactivity”.

On to “QVQLVESGVGLVQAGGSLRLSSAASGFTFIYYAMGWYRQAPGKERELVAAITSGGNTYYADSVKGRFTISRDNAKNTDYLQMNSLTPEDPAVYYCNKVPHREWVGGYDYWGQGTQVTVSS”, for which the “polyreactivity (PSR sort gate)” value is “low polyreactivity”.

Regarding “QVQLVESGVGLVQAGGSLRLSSAASGRILRQYAMGWYRQAPGKERELVAAITSSGGSTYYADSVKGRFTISRDNAKNTVYLQMNSLKPEDTAVYYCNARLRGAKYDYWGQGTQVTVSS”, the “polyreactivity (PSR sort gate)” value is given as “high polyreactivity”.

As for “QVQLVESGVGLVQAGGSLRLSSAASGRTFPSNNMGWYRQAPGKERELVAAISKNGGSTYYADSVKGRFTISRDNAMNTVYLQMNRLKPEDTAVYYWAATGVSSKRLASQRKLDYWGQGSQVTVSS”, the “polyreactivity (PSR sort gate)” value was “high polyreactivity”.

Consider “QVQLVESGVGLVQAGGSLRLSSDASGSIFGTYAMGWYRQAPGKERELVAAITGNGGRTYYADSVKGRFTISRDNAKNTVYLQMHSLKAEDTAVYSCAISSSRGGFYYWGQGNQVTVSS”, for which the “polyreactivity (PSR sort gate)” value is given as “high polyreactivity”.

As for “QVQLVESGVGLVQAGGSLSLSCAASGRLFNYYAMGWYRQAPGKERELVAAISSSGGRTYYADSVKGRFTISRDNAKNTVYLQMNCLKPEDTAVFYCAAYDSLRYSTYDYWGQGTQVTVSS”, the “polyreactivity (PSR sort gate)” value is “high polyreactivity”.

For “QVQLVESGVGLVQAGGTLRISCAASGRISRGYAMGWYRQAPGKERELVAAISRRGDSTYYADSVKGRFTISRDNAKYTVYLQMNSLKPEDTAVYYCAARNGGRYAAGLDYWGQGTHVTVSS”, the “polyreactivity (PSR sort gate)” value is recorded as “high polyreactivity”.

Take “QVQLVESGVGLVQAGGTLRLSCAPSGSTFSVYAMGWYRQPPGKERELVADITRGGSTYADSVKGRFTISRDNAKITVYLQMNSLKPEDTAVYYCAGEEVTPYPLYWSTREYDYWGQGTQVTVSS”: the “polyreactivity (PSR sort gate)” value is “low polyreactivity”.

Turning to “QVQLVESGVGLVQAGVSLRISCAASGSIFDTYAMGWYRQAPGKERELVAAIRWTGGSTYYADSVKGRFTISRDNAKNTVYLQMNSLKREDTAVYYCATPSYGRPGFGYWGQGTQVTVSS”, the “polyreactivity (PSR sort gate)” value is “low polyreactivity”.

In the case of “QVQLVESGVGLVQARGSLPLSCAASGSIFYYYVMGWYRQAPGKERELVAAIRSSGTSTYYADSVKGRFTISRDNAKNTVYLQRNSLKPEDTAVYYCNRARSSSRYDYWGQGTQVTVSS”, the “polyreactivity (PSR sort gate)” value is given as “low polyreactivity”.

Regarding “QVQLVESGVGLVQARGSLRISCAASGFIFDLYAMGWYIQAHGKERELVAAITTSGGTTYYADSVKGRFTISRDNAKNTVYLQMNSLKPEDTAVYYCNALRRYVSVRPTKSDYWGQGTQVTVSS”, the “polyreactivity (PSR sort gate)” value is “high polyreactivity”.

“QVQLVESGVGLVQARGSLRLSCAASGVISSINAVGWNRLAAAKEWELVAGIRARGTSPYYADSVKGRFTISRDNAKNTVYLQMNCLKPEDTAVYDCAADVDAGRHYGYWGQGTQVTVSS”: the “polyreactivity (PSR sort gate)” value was “low polyreactivity”.

On to “QVQLVESGVGLVQARGSLRLSSASSGSILSTYAMGCYRQAPGKERELVASISSNAGSTYYADSVKGRFTISRDNAKNTVYLQMNSLKPEDTAVYYCNVKYKYYSPNYDYWGEGTQVTVSS”, for which the “polyreactivity (PSR sort gate)” value is “low polyreactivity”.

As to “QVQLVESGVGLVQAVGSLRLSCAASGIIFPYYPMGWYRQAPGKERELVAAISTGGSTYYADSVKGRFTISRDNAKNTVYLQMNSLKPEDTAVYFCAARVARYRSTKRYDYWGQGTQVSVSS”, the “polyreactivity (PSR sort gate)” value was “high polyreactivity”.

Turning to “QVQLVESGVGLVQAVGSLRLSCAASGRIFPAYVMGWYRQAPGKERELVATIDNGGGTYYADSVKGRFTISCDNAKYTVYLQMNSLKPEDTAVYYCARDRHVRWGLKRDYWGQGTQVTVSS”, the “polyreactivity (PSR sort gate)” value was “low polyreactivity”.

For “QVQLVESGVGLYQAGGSLRLSCAASGSIFEENAMVWYRQAPGKEMELVAAITIGGRTNYADSVKGRFTISRDNAKNTVYLEMNSLKPEDTAVYYCASDLSSIKYWLFWTRYYYWGQGTQVNVSS”, the “polyreactivity (PSR sort gate)” value was “low polyreactivity”.

For “QVQLVESGVRLVQAGGSLRLSCASSAITFGKNAMGWYRQAPGTESELVAAITRDGGTNYADSVKGRFTISRDNAMNTVYLHMNILKPEDTAVYYCAKRAYIYYGRYDYWGQGTQVTVSS”, the “polyreactivity (PSR sort gate)” value was “low polyreactivity”.

On to “QVQLVESGVRLVQAGGSLRLTCAASGNTFVAYAMGWYRQAPGKERDLVAGITRGGTTYYADSVKGRFTISRDNAKNSVYLQMNSLKPEDTAEYDCAARLGYRYNYWGQGTQVTVSS”, for which the “polyreactivity (PSR sort gate)” value is recorded as “high polyreactivity”.

As to “QVQLVESGVVLVQAGGSLRLSCAASGYTFRVYTMGWYRQAPGKERELVAAISRRGSRTYYADSVKGRFTISRDYAKNTVYLQKNSLKPEDTAVYYCAAGIPYPDDYWGLGTQVTVSS”, the “polyreactivity (PSR sort gate)” value is on record as “high polyreactivity”.

For “QVQLVESLGGLVQAGGSLRLSCAASGFTFTNYAMGWYRQAPGKERELVAAINSSGSTNYADSVKGRFTISRDNAKNTVYLQMNSLKPEDTAVYYCAVDYSYWVHGFWDDYDYWGQGTQVTVSS”, the “polyreactivity (PSR sort gate)” value was “low polyreactivity”.

Turning to “QVQLVESLGGLVQAGGSLRLSFAASGFIFAKYAIGWYRKAAGKERELVAAITSGGSTNYADSVKGRFTISRDNAKNTVFLQMNSLKPEDTAVYYCNRGFDWCYRYRHYDYCGQGTQVTVSS”, the “polyreactivity (PSR sort gate)” value is “low polyreactivity”.

“QVQLVESPGRLVQAGGSLRLSCDPTGRTFKIYALGSSRQAPGKESELVAAIRRSGGNTYYADSVKGRFTISRDNAKNTVYLQMNSLKPEDTAVYYCAVGRGSLRGRTDGGYWGQGTQVTVSS”: the “polyreactivity (PSR sort gate)” value was “high polyreactivity”.

Consider “QVQLVESRGALVQAGGSLRLSCAASGPIFDSYAMGWYRQATGKERELVATISRDSASTYYADSVKGRLTISRDNAKNTVYLQMNSLNPADTAVYYCSAGGSSSWAYNYWGHGTQVTVSS”, for which the “polyreactivity (PSR sort gate)” value is on record as “low polyreactivity”.

Consider “QVQLVESRGCLVQAGGSLRLSCAASGSIFVNNAMGWYRPAPGYERELCAAITSGTRTNYADSVKGRFTISRDNAKNTVYLQMNSLKPEDTAVYYCATESAQYSWYYPGHPGYGYWGQGSQVTVSS”, for which the “polyreactivity (PSR sort gate)” value is “low polyreactivity”.

“QVQLVESRGCLVQAGGSLRLSCAASGSISIKNAMGWYRQAPGKERELVATITYNGGSTYYADSVKGRFTISRDNAKNTVYLQMNSLKPEDTAVYYCARDAFEPYDVGEYYYWGQGTQVTVSS”: the “polyreactivity (PSR sort gate)” value is reported as “low polyreactivity”.

Consider “QVQLVESRGGFVQARCSLRLSCDASGRIFYYYGMGWYRQAPGKERELVAAITRNTGRTYYADSVKGRFTISRDNAKNTVYLQMNSLKPEDSSVYYFARDRRTWSPYTRAYRRNDYWVQGTQVTVSS”, for which the “polyreactivity (PSR sort gate)” value is listed as “high polyreactivity”.

“QVQLVESRGGLVHAGGSLRLSCAASGSIFQSYYMGWYRQAPGKERELVAAISWSGSTTYYADSVKGRFTISRDNAKNTVYLQMNSLKPEDTAVYYCAVDSNPPDWWAVIYGYWGQGTQVTVSS”: the “polyreactivity (PSR sort gate)” value was “low polyreactivity”.

Regarding “QVQLVESRGGLVQAGGSHRLSCAASGSIFGANAMGWYRQAPGKERELVAAITSGSGTNYADSVKGRFTISRDNAKNTVYLQMISLNPEDTAVYYCAAVVLYQGRYDYWGQGTQVTVSS”, the “polyreactivity (PSR sort gate)” value was “low polyreactivity”.

In the case of “QVQLVESRGGLVQAGGSLPLSCAASGSIFSRNALGWYRQAPGKERELVAAITWSGGSTYYADSVKGRFTISRDNAKNTVYLQMNSLKAEDTAVYYCNAKRSSRIKQLEYDYWGKGTQVTVSS”, the “polyreactivity (PSR sort gate)” value is given as “high polyreactivity”.

“QVQLVESRGGLVQAGGSLRLRCAASGFILDTYGIVWYRQAPGKERELVAAIYQSDVSTYYADSVKGRFTISRDNAKNTVYLQMNSLKPEDTAVYYCAADRGVLRWFCQVLYDYWGQGTQVTVSS”: the “polyreactivity (PSR sort gate)” value was “low polyreactivity”.

As for “QVQLVESRGGLVQAGGSLRLSCAASGFIFGFYALGWYRQEPGTEMELVAAITWDGGSTYYADSVKGRFTISRDNAKNTVYLQMNSLKPEDTAVYYCAAYFQYQDVDYDYWGQGTQVTVSS”, the “polyreactivity (PSR sort gate)” value is “high polyreactivity”.

With “QVQLVESRGGLVQAGGSLRLSCAASGFIFYWNAMGWYRQAPGKEREFVATITWSGGSTYYADSVKGRFTISRDNAKNTVYLQMNSLKPEDTAVYYCNADVTWEDDYCGQGTQVTVSS”, the “polyreactivity (PSR sort gate)” value is recorded as “low polyreactivity”.

As for “QVQLVESRGGLVQAGGSLRLSCAASGFTFWDNVIGWYRQAPGKERELVAAISNSGGRTYYADSVKGRFTISRDNEKNTVYLQMNILKPEDTAVYYCARYGRRHGYPILDYWGQGTQVTVSS”, the “polyreactivity (PSR sort gate)” value is on record as “high polyreactivity”.

As to “QVQLVESRGGLVQAGGSLRLSCAASGGTFSLNAMGWYRQAPGKERELVAANSKRSSTTYYADSVKGRFTISRDNAKNTVYLQMNSLKPEDTAVYYCAARVLRSRKPGPGYDYWGQGTQVTVSS”, the “polyreactivity (PSR sort gate)” value was “high polyreactivity”.

“QVQLVESRGGLVQAGGSLRLSCAASGIIFHFYAMGWYRQAPGKERELVAAINSRGGSTYYADSVKGRFTISRDNAKNTVYLQMNSLKPEDTAVYYCAAQYLFYGHDYWGQGTQVTVSS”: the “polyreactivity (PSR sort gate)” value is reported as “low polyreactivity”.

As for “QVQLVESRGGLVQAGGSLRLSCAASGLIFASYAMGWNRQAPGKERELVAAISWSGGSTYYADSVKGRFTISRDNAKNTVYLQMNSLKPEDTAVYYCAAKRYAYGSLDYWGQGTQLTVSS”, the “polyreactivity (PSR sort gate)” value was “high polyreactivity”.

Turning to “QVQLVESRGGLVQAGGSLRLSCAASGLTFLYNAMGWYRQAPGKERELVAAISQSAGSTYYADSVKGRFTISRDNAKNTVYLQMNSLKPEDTAVYYCAAEWDTPDLVIYDYWGQGTQVTVSS”, the “polyreactivity (PSR sort gate)” value is “low polyreactivity”.

In the case of “QVQLVESRGGLVQAGGSLRLSCAASGRIFETNTMGWYRQAPGKEREFVAAITFSGGRTNYADSVKGRFTISRDNAKNTDYLPMNSLKPEDTAVYYCAAAGRRRKYYYWGQGTQVTVSS”, the “polyreactivity (PSR sort gate)” value was “high polyreactivity”.

In the case of “QVQLVESRGGLVQAGGSLRLSCAASGRIFRYNAMGWDRQAPGKERELVAAITRSGGRTYYADSVKGRFTISRDNAKNTVYLQMNSLKPEDTAVYYCAADKYPSSPYVGDVDYWGQGTQVTVSS”, the “polyreactivity (PSR sort gate)” value is “high polyreactivity”.

Regarding “QVQLVESRGGLVQAGGSLRLSCAASGRIFYGYAMGGYRQAPGKERELVAGISKRGGTTRYADSVKGRFTISRDNAKNTVYLQMNSLKPEETAVSSCAAESFGLYASPGEEYWGQGTQVTVSS”, the “polyreactivity (PSR sort gate)” value was “high polyreactivity”.
